Molecular target: the molecule itself
Experiment: AUC

B1: SARS-CoV main protease, full-length wild type, C-terminal His6 (enzyme)
chain: SGFRKMAFPSGKVEGCMVQVTCGTTTLNGLWLDDTVYCPRHVICTAEDMLNPNYEDLLIRKSNHSFLVQAGNVQLRVIGHSMQNCLLRLKVDTSNPKTPKYKFVRIQPGQTFSVLACYNGSPSGVYQCAMRPNHTIKGSFLNGSCGSVGFNIDYDCVSFCYMHHMELPTGVHAGTDLEGKFYGPFVDRQTAQAAGTDTTITLNVLAWLYAAVINGDRWFLNRFTTTLNDFNLVAMKYNYEPLTQDHVDILGPLSAQTGIAVLDMCAALKELLQNGMNGRTILGSTILEDEFTPFDVVRQCSGVTFQ
  Kd: 80 ± 5 nM
  koff: 0.01 ± 0.001 s⁻¹
